Measurements: article PMC12238573 (Nature Communications, 2025)

B1: PRPS2 (endogenous, mouse) (enzyme, UniProt Q9CS42 1-318, looked up)
chain: MPNIVLFSGSSHQDLSQRVADRLGLELGKVVTKKFSNQETSVEIGESVRGEDVYIIQSGCGEINDNLMELLIMINACKIASSSRVTAVIPCFPYARQDKKDKSRAPISAKLVANMLSVAGADHIITMDLHASQIQGFFDIPVDNLYAEPAVLQWIRENITEWRNCIIVSPDAGGAKRVTSIADRLNVEFALIHKERKKANEVDRMVLVGDVKDRVAILVDDMADTCGTICHAADKLLSAGATKVYAILTHGIFSGPAISRINSAAFEAVVVTNTIPQEDKMKHCSKIQVIDISMILAEAIRRTHNGESVSYLFSHVPL
notes: PRPS2, endogenous in mouse cells and tissues; also called P2; phosphoribosyl pyrophosphate synthetase 2; source: endogenous, NIH3T3 lysate (parental and CRISPR knockout lines); endogenous, C57BL/6 mouse liver, kidney and lung lysates

Assays:
[1] = biological target: Branchiostoma lanceolatum Class II PRPS (Branchiostoma lanceolatum); test: SEC; lysate of HEK293T cells with exogenously expressed Class II PRPS; fractions analysed by Western blot
[2] = biological target: the molecule itself; test: SEC; native whole-cell lysates of NIH3T3 AP1 KO and AP1/AP2 KO cells on Yarra SEC-2000 (1 kDa to 300 kDa); fractions analysed by Western blot

| Molecule | stoichiometry N [1] | stoichiometry N [2] |
| --- | --- | --- |
| Branchiostoma lanceolatum Class II PRPS (enzyme) | 2 to 6 | – |
| B1 | – | 2 |
